The record followed here is article PMC9788556, “Nanobodies against Pfs230 block Plasmodium falciparum transmission” (Biochemical Journal, 2022).

Sequences and labels used below:
B1: Pfs230 D1D2 (aa 587–889) (domain or fragment, Plasmodium falciparum, UniProt P68874 587-889, looked up)
chain: TNKEYVCDFTDQLKPTESGPKVKKCEVKVNEPLIKVKIICPLKGSVEKLYDNIEYVPKKSPYVVLTKEETKLKEKLLSKLIYGLLISPTVNEKENNFKEGVIEFTLPPVVHKATVFYFICDNSKTEDDNKKGNRGIVEVYVEPYGNKINGCAFLDEDEEEEKYGNQIEEDEHNEKIKMKTFFTQNIYKKNNIYPCYMKLYSGDIGGILFPKNIKSTTCFEEMIPYNKEIKWNKENKSLGNLVNNSVVYNKEMNAKYFNVQYVHIPTSYKDTLNLFCSIILKEEESNLISTSYLVYVSINEELN
notes: used untagged; also called first two 6-cys domains of Pfs230; source: Sf21 insect cells (baculovirus), secreted, purified (Ni-NTA, TEV cleavage, SEC); not shown: His8, N-terminal, cleaved
B7: Pfs230 Pro-D1D2 (aa 532–889) (domain or fragment, Plasmodium falciparum, UniProt P68874 532-889, looked up)
chain: DGENVIKIIRSVLQSGALPSVGVDELDKIDLSYETTESGDTAVSEDSYDKYASNNTNKEYVCDFTDQLKPTESGPKVKKCEVKVNEPLIKVKIICPLKGSVEKLYDNIEYVPKKSPYVVLTKEETKLKEKLLSKLIYGLLISPTVNEKENNFKEGVIEFTLPPVVHKATVFYFICDNSKTEDDNKKGNRGIVEVYVEPYGNKINGCAFLDEDEEEEKYGNQIEEDEHNEKIKMKTFFTQNIYKKNNIYPCYMKLYSGDIGGILFPKNIKSTTCFEEMIPYNKEIKWNKENKSLGNLVNNSVVYNKEMNAKYFNVQYVHIPTSYKDTLNLFCSIILKEEESNLISTSYLVYVSINEELN
notes: Pfs230 of Plasmodium falciparum (PF3D7_0209000), amino acids 532-889: a part of the prodomain and 6-cys domains D1 and D2; used untagged; source: Sf21 insect cells (baculovirus), secreted, purified (Ni-NTA, TEV cleavage, SEC); not shown: His8, N-terminal, cleaved

Common to all, as to settings: both partners purified
In assay [1] the target is T1, F5-Fc (alpaca).
T1 construct: as the VHH of m13 (nanobody F5); also called F5 nanobody-Fc fusion; source: HEK293, transient transfection, purified from supernatant (HiTrap PrismA, SEC)
Kind of assay: BLI; Octet RED96e; nanobody-Fc or LMIV230-01 (5 µg/ml) on anti-hIgG Fc capture sensor tips; untagged Pfs230 D1D2 or Pfs230 Pro-D1D2 3 to 100 nM or 94–3000 nM; PBS pH 7.4, 0.1% BSA, 0.05% TWEEN-20, 25°C; global 1 : 1 fit. For orientation: Biolayer interferometry detects binding as a change in optical thickness at a sensor tip.

Assay [2] addresses T2, F10-Fc (alpaca).
T2 construct: as the VHH of m14 (nanobody F10); also called F10 nanobody-Fc fusion; source: HEK293, transient transfection, purified from supernatant (HiTrap PrismA, SEC)
Described as above.

Assay [3] concerns the target B1. Kind of assay: BLI; Octet RED96e; monomeric nanobodies (5 µg/ml) on Ni-NTA sensor tips; untagged Pfs230 D1D2 6 to 200 nM or untagged Pfs230 D1 0.8 to 100 nM; PBS pH 7.4, 0.1% BSA, 0.05% TWEEN-20, 25°C; global 1 : 1 fit.
Assay [4] concerns the target T3, Pfs230 D1 (aa 587–731) (Plasmodium falciparum 3D7, UniProt P68874).
T3 construct: used untagged; also called first 6-cys domain of Pfs230; source: Sf21 insect cells (baculovirus), secreted, purified (Ni-NTA, TEV cleavage, SEC); not shown: His8, N-terminal, cleaved
Described as above.

In assay [5] the target is B7. Kind of assay: SEC; size shift assay: Pfs230 Pro-D1D2 or Pfs230 D1D2 incubated with nanobodies or LMIV230-01 at different molar ratios for 1 h on ice; SD200 3.2/300 column, 20 mM HEPES pH 7.5, 150 mM NaCl. On the technique in general: SEC sorts molecules by how far they enter the pores of the column.
For assay [6], the target named is B1. As to the kind of experiment: far-Western, overlay or dot blot; western blot: 250 ng untagged Pfs230 D1D2 separated on a 4–12% Bis-Tris gel in non-reducing conditions, on PVDF, probed with 0.5 µg/ml nanobody overnight at 4°C. (In general: A western blot detects proteins with antibodies after separation by electrophoresis.)
Assay [7] deals with B1. As to the kind of experiment: far-Western, overlay or dot blot; western blot: 250 ng untagged Pfs230 D1D2 separated on a 4–12% Bis-Tris gel in reducing conditions, on PVDF, probed with 0.5 µg/ml nanobody overnight at 4°C.

As to B1, the figures for the Kd in assay [1] and in assay [2] were 0.57 nM and 0.13 nM, respectively.

B2: nanobody B4 (VHH)
VHH: QVQLQESGGGLVQPGGSLRLSCAASGFTLDYYGIGWFRQAPGKEREGVSCISSSDGSTYYADSVKGRFTISRDNAKNTVYLQMNSLKPEDTAVYYCAADLTGIGCTTAQAMGVIGDFGDFGSWGQGTQVTVSS
notes: From a phage display library (pMES4) of an alpaca immunized with Pfs230 D1D2; source: E. coli WK6, periplasmic extract, purified (HisTrap)
With B2, the binding result in assay [3] and in assay [4] was “binds” throughout.

B3: nanobody E11 (VHH)
VHH: QVQLQESGGGLVQPGGSLRLSCAASGFTSDYYGIGWFRQAPGKEREGVACISSSDGSTYYADSVKGRSTISRDNAKNTVYLQMNSLKPEDTAVYYCAADLSGIGCTTAQAMDVIGDFGDFGSWGQGTQVTVSS
notes: as for B2
Consider B3, for which the binding result in assay [3] and in assay [4] was “binds” each time.

B4: nanobody F5 (VHH)
VHH: QVQLQESGGGLVQPGGSLRLSCAASGFTLDRYAIGWFRQAPGKEREGVSCISSSDGSTYYADSVKGRFTISRDNAKNTVYLQMNSLKPEDTAVYYCARDHGPCTVLADILYDYGMDYWGKGTQVTVSS
notes: From a phage display library (pMES4) of an alpaca immunized with Pfs230 D1D2; also called anti-Pfs230 F5; source: E. coli WK6, periplasmic extract, purified (HisTrap)
As to B4, in assay [5], the “stoichiometry N” value stood at 1.

B5: nanobody G2 (VHH)
VHH: QVQLQESGGGLVQAGGSLRLSCAASGRTFSNYFMGWFRQAPGKEREFVAAVSWSGGSTYYADSVKGRLTISRDNAKNTVYLQMNSLKPEDTAVYYCAAGERYFPMEPRRGYDYWGQGTQVTVSS
notes: as for B2
On to B5, for which the binding result in assay [4] and in assay [6] was “binds” each time.

B6: nanobody A11 (VHH)
VHH: QVQLQESGGGLVQPGESLRLSCAASGRTSSSYAMGWFRQAPGKEREFVASISWSGGSTYYADSVKGRFTLSRDNAKNTVYLQMNSLKPEDTAVYYCAADGIFYSDYPLSVDDFHSWGQGTQVTVSS
notes: as for B2
In the case of B6, the binding result in assay [4] and in assay [7] was “binds” each time. B7: in assay [1], the Kd is 118 nM. That is a sub-micromolar value.

B8: nanobody G5 (VHH)
VHH: QVQLQESGGGLVQAGGSLRLSCAASGRTFNDYAMYWFRQAPGKEREFVADITWSGSSTYYADSVKGRFTISRDNAKNTVFLQMNSLKPEDTALYYCAADSRYYGIGIGTPRYWGQGTQVTVSS
notes: as for B2
As for B8, the binding result in assay [4] and in assay [6] was “binds” each time.

B9: nanobody D1 (VHH)
VHH: QVQLQESGGGLVQAGDSLRLSCTASGRTFSNHAMGWFRQAPGKEREIVAVIFGTGRNSWYVDSVKGRFTISRDNAKNTVALQMNRLKPEDTAVYYCASGRTWYSGSSMAEYDYWGQGTQVTVSS
notes: Not to be confused with the D1 domain of Pfs230; From a phage display library (pMES4) of an alpaca immunized with Pfs230 D1D2; also called D1 (nanobody); source: E. coli WK6, periplasmic extract, purified (HisTrap)
For the molecule B9, in assay [4], the binding result was “binds”.

B10: nanobody A10 (VHH)
VHH: QVQLQESGGGLVQAGSSLRLSCAASGGTFSNYAMGWFRQAPGKEREFVAAIGWSGGTYYTDSVEGRFTISRDNAKNTVYLQMNSLKPEDTAVYYCAAKRSGSSWSERGYDYWGQGTQVTVSS
notes: as for B2
For B10, the binding result in assay [4] and in assay [6] was “binds” throughout.

B11: nanobody D11 (VHH)
VHH: QVQLQESGGGLVQAGSSLRLSCAASGRTFSSYAMGWFRQAPGKEREFVAAIGWSGGTYYTDSVEGRFTISRDNAENTVYLQMNSLKPEDTAVYYCAAKASGSSWSERGYDYWGQGTQVTVSS
notes: as for B2
Take B11: the binding result in assay [3] and in assay [4] was “binds” each time.

B12: nanobody D6 (VHH)
VHH: QVQLQESGGGLVQAGDSLRLSCAASGRTFSSYFMGWFRQAPGKEREFVAAISWSGGSTYYADSVKGRFTISRDNVKNTVYLQMNSLEPEDAAVYYCAGGGSYYPMSPRNGMDYWGKGTQVTVSS
notes: as for B2
On to B12, for which the binding result in assay [4] and in assay [7] was “binds” each time.

B13: nanobody F10 (VHH)
VHH: QVQLQESGGGLVQAGGSLRLSCAASGRTFSDYFMGWFRQAPGKEREFVAAVSWSGGSTYYADSVKGRFTISRDNAKNTVFLQMNSLKPEDTAVYYCAGGGSYYPMSPYDGMDYWGKGTQVTVSS
notes: From a phage display library (pMES4) of an alpaca immunized with Pfs230 D1D2; also called anti-Pfs230 F10; source: E. coli WK6, periplasmic extract, purified (HisTrap)
Turning to B13, the “stoichiometry N” value in assay [5] worked out at 1.

B14: nanobody E1 (VHH)
VHH: QVQLQESGGGLVQPGGSLRLSCAASGRTFSSYFMGWFRQAPGKGRVFVASISWSGGSTYYADSVKGRFTISRDNAENTVYLQMNSLKPEDTAVYYCAAGTRATPLDWASGMDYWGKGTQVTVSS
notes: as for B2
Regarding B14, the binding result in assay [3] and in assay [4] was “binds” throughout.

The term Kd denotes the free concentration of one partner at which half of the binding sites on the other are occupied at equilibrium, for simple one-to-one binding. In general, stoichiometry N refers to the number of molecules, sites or subunits per partner or assembly.
